Measurements taken from US20110184016A1.

Assays:
[1] = target: human protease-activated receptor 2 (human) (UniProt P55085); assay: cell-based or functional assay
[2] = target: T1, human protease-activated receptor 4 (human) (UniProt Q96RI0); assay: cell-based or functional assay
T1 sequence (looked up): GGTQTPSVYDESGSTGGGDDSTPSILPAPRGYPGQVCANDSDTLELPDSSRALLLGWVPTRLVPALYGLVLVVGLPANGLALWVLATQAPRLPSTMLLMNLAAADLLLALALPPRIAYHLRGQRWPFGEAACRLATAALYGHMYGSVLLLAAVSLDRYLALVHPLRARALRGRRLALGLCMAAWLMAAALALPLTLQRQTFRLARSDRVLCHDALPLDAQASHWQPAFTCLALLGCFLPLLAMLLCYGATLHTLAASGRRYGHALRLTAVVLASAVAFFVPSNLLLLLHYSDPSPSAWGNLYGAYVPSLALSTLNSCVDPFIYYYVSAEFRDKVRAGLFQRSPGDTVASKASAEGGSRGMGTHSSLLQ

Sequence of recombinant human cathepsin S (P25774 115-331): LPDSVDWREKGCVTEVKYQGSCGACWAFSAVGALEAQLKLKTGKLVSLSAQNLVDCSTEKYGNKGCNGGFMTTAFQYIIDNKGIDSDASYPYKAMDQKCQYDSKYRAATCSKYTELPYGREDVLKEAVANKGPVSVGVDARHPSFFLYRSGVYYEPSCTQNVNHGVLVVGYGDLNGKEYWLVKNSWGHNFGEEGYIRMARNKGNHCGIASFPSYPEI

calcium flux (ratiometric Fura-2 imaging, transfected HeLa cells) [1]: 30 nM | calcium flux (ratiometric Fura-2 imaging, transfected HeLa cells) [2]: 30 nM
Substance: recombinant human cathepsin S (from UniProt P25774 115-331) (enzyme)
